According to patent publication US20090202508A1, “NEGATIVE REGULATION OF HYPOXIA INDUCIBLE FACTOR 1 BY OS-9” (THE JOHNS HOPKINS UNIVERSITY, priority 2004, published 2009):

Legend:
[1] = tested on: HIF-1α transactivation domains (residues 531-826); experiment: GAL4-dependent reporter (pGalA) transactivation assay; type: cell-based, human; settings: co-transfection of OS-9 expression vector; FIG. 3B
Description: 293 or Hep3B cells were seeded onto 24-well plates at 8×10^4 cells per well of a 24-well plate. The following day, the cells were transfected with plasmid DNAs using Fugene-6 (Roche) for 293 and Lipofectamine Plus (Invitrogen) for Hep3B cells. After 24 h, the cells were exposed to 20% or 1% O2 for 24 h. Cells were lysed, and the luciferase activities were determined by multi-well luminescence reader (PerkinElmer), using the Dual-Luciferase Reporter Assay System (Promega). For p2.1 reporter assay, cells were co-transfected with 15 ng of control reporter pSV-Renilla, 135 ng of HIF-1 reporter p2.1, and expression vector encoding HA-OS-9, HIF-1α, or empty vector. Unless indicated otherwise, 200 ng of HIF-1α, 400 ng of HA-OS-9, 1 ng of PHD2, or 1 ng of HIF-1α triple mutant P402A/P564A/N803A (HIF-1α TM) expression vector was used for co-transfection. For pGalA reporter assays, Hep3B cells were co-transfected with 12.5 ng of pSV-Renilla, reporter 200 ng of pG5ElbLuc, 100 ng of expression vector encoding the GAL4 DNA-binding domain alone or fused to HIF-1α residues 531-826 (Jiang et al. 1997) and empty vector or vector encoding HA-OS-9. For immunoblot assays, 293 cells were seeded at 3×10^6 cells per 10-cm plate. The following day, the cells were co-transfected with expression vectors using Fugene-6. […]

PHD2 [2] = biological target: T1, PHD2 (Homo sapiens, UniProt Q9GZT9); experiment: PHD binding assay (pull down of PHD2 with GST-HIF-1α (531-826)); settings: lysates from cells transfected with OS-9 and PHD2 vectors versus PHD2 vector alone; FIG. 7B
T1 construct: expressed in transfected cells; host or cells: 293 cells (whole cell lysate used as the enzyme source)
T1 sequence (Q9GZT9 whole entry): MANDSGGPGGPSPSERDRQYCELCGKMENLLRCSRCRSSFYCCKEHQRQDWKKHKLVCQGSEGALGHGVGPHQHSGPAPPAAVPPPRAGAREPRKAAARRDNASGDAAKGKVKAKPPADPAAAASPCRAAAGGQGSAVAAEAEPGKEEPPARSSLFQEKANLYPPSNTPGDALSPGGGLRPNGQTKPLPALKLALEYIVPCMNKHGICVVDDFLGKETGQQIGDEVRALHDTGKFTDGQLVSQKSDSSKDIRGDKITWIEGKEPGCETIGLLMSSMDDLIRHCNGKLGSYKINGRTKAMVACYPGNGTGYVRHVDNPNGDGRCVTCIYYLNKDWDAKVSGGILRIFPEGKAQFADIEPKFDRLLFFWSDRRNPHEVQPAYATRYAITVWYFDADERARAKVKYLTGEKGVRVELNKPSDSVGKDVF
Description: For in vitro VHL binding assay, preincubated GstA and 5 μl of [^35S]methionine-labeled VHL protein were mixed in a total volume of 300 μl of PBS-T with 1 mM desferrioxamine and incubated at 4° C. for 90 min. 20 ul of glutathione-Sepharose-4B beads (Amersham Biosciences) was added and incubated for 30 min with rotation. Beads were washed three times with PBS-T. Proteins were eluted in Laemmli sample buffer, fractionated by SDS-PAGE, and detected by autoradiography. For PHD binding assay, […] of GST-HIF-1α was preincubated with 50 μg of -whole cell lysate in a total volume of 50 μl with PBS-T at 30° C. for 10 min with or without 1 mM DMOG. The reaction was terminated by addition of desferrioxamine to 1 mM, 20 μl of glutathione-Sepharose-4B beads were added and incubated for 30 min. The beads were washed three times with PBS-T. Bound protein was eluted in Laemmli sample buffer, fractionated by SDS-PAGE, and subjected to immunoblot assay using antibodies against PHD2 (Novus Biologicals Inc.) or GST (Amersham).

HIF-1α [3] = biological target: T2, HIF-1α (Homo sapiens, UniProt Q16665); experiment: Co-immunoprecipitation of HA-OS-9 and HIF-1α in 293 cells; type: cell-based; settings: anti-HA immunoprecipitation, FIG. 2B
Description: (§1) 293 cells (3×10^6 cells per […] plate) were transfected with Lipofectamine Plus and a total of 10 μg of expression vectors. After 24 h, cells were lysed with PBS/0.1% Tween-20. 400 μg of whole cell lysate (brought to a final volume of 200 μl with lysis buffer) were immunoprecipitated using anti-HA affinity matrix (Roche) followed by immunoblot assay using antibody against HIF-1α (Zhong et al. 1999), PHD 1-3 (Novus Biologicals Inc.), or HA (Roche).
Target sequence in this assay (Q16665 whole entry): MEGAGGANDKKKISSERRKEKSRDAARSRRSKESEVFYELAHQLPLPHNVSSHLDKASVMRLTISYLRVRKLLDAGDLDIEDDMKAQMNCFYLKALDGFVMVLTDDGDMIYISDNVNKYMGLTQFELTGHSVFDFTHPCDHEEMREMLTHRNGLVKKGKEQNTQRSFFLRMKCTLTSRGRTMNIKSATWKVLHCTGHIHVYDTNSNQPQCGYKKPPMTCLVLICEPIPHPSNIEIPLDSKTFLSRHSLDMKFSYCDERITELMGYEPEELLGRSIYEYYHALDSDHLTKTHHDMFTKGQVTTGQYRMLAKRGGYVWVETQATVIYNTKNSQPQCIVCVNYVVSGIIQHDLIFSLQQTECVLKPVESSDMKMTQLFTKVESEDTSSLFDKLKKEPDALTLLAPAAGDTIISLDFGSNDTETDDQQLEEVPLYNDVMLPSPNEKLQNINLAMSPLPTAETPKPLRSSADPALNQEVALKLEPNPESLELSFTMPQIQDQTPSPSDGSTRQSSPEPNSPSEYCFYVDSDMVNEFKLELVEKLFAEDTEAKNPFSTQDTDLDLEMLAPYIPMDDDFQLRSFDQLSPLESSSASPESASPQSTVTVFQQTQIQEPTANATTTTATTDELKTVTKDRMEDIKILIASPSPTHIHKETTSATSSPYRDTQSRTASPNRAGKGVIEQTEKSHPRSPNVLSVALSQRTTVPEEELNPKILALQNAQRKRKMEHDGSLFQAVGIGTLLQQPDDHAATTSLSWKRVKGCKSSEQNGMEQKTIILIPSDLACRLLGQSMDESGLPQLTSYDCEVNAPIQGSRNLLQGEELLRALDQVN

PHD3 = biological target: T3, PHD3 (Homo sapiens, UniProt Q9H6Z9); experiment: Co-immunoprecipitation of HA-OS-9 with PHD3 in 293 cells; type: cell-based; settings: anti-HA immunoprecipitates, immunoblot; FIG. 5
T3 construct: expressed in transfected cells; host or cells: 293 cells
T3 sequence (Q9H6Z9 whole entry): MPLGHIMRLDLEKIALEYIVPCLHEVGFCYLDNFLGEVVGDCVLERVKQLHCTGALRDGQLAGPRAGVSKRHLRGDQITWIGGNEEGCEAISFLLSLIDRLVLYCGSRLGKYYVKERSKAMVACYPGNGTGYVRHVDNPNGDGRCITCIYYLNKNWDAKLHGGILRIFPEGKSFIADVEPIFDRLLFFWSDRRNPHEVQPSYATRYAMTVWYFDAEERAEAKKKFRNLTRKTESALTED
Description: as §1

HIF-1α [4] = experiment: In vitro interaction (GST pull-down) assay of OS-9 with GST-HIF-1α fusion proteins; type: binding, human; settings: FIG. 2A
Description: (§2) To prepare GST fusion proteins, E. coli BL21-Gold(DE3)pLysS (Stratagene) was transformed with a pGEX expression vector and treated for 4 h with 0.5 mM isopropyl-D-thiogalactoside. Pelleted cells were lysed by sonication in PBS containing 1% Triton X-100 and Complete protease inhibitor cocktail (Roche). After centrifugation, supernatants were applied to glutathione-Sepharose 4B beads (Amersham Pharmiacia Biotech). GST fusion proteins were eluted with 10 mM reduced glutathione in 50 mM Tris-HCl (pH 8.0) and stored at −80° C. The concentration and purity of eluates were determined by the Bradford method and by SDS-PAGE. [^35S]methionine-labeled proteins were generated in reticulocyte lysates with plasmids encoding HA-OS-9 or FLAG-VHL using the TNT T7 coupled transcription/translation system (Promega). Ten μl of in vitro-translated ^35S-labeled protein was mixed with 4 μg of GST or GST-HIF-1α fusion protein (Mahon et al. 2001) in a final volume of 200 μof PBS-T binding buffer (Dulbecco's PBS [pH 7.4], 0.1% Tween-20). The binding reaction was performed at 4° C. for 2 h with rotation followed by the addition of […] pre-washed glutathione-Sepharose 4B beads. After 30 min of mixing on a rotator, the beads were washed three times with PBS-T. Proteins were eluted in Laemmli sample buffer and analyzed by SDS-PAGE followed by autoradiography.

HIF-1α [5] = biological target: T2, HIF-1α; experiment: as above; type: binding; parameters: made in house; host or cells: E. coli BL21-Gold(DE3)pLysS (GST fusion); rabbit reticulocyte lysate TNT T7 (HA-OS-9); settings: increasing amounts of in vitro-translated OS-9, desferrioxamine present; FIG. 6C
Description: as §2
Target sequence in this assay (Q16665 531-826): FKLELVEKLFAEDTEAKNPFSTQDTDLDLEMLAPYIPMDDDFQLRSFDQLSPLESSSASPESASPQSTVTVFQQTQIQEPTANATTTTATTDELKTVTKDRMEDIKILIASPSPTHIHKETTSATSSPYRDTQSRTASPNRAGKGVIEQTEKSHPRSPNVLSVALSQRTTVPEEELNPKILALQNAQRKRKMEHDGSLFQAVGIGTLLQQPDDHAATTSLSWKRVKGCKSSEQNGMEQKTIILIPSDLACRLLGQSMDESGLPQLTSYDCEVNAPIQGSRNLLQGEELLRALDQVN

PHD2 [6] = biological target: T1, PHD2; experiment: Co-immunoprecipitation of HA-OS-9 with PHD2 in 293 cells; type: cell-based; settings: anti-HA immunoprecipitates, immunoblot; FIG. 5
Description: as §1

PHD1 = biological target: T4, PHD1 (Homo sapiens, UniProt Q96KS0); experiment: Co-immunoprecipitation of HA-OS-9 with PHD1 in 293 cells; type: cell-based; settings: anti-HA immunoprecipitates, immunoblot; FIG. 5
T4 construct: expressed in transfected cells; host or cells: 293 cells
T4 sequence (Q96KS0 whole entry): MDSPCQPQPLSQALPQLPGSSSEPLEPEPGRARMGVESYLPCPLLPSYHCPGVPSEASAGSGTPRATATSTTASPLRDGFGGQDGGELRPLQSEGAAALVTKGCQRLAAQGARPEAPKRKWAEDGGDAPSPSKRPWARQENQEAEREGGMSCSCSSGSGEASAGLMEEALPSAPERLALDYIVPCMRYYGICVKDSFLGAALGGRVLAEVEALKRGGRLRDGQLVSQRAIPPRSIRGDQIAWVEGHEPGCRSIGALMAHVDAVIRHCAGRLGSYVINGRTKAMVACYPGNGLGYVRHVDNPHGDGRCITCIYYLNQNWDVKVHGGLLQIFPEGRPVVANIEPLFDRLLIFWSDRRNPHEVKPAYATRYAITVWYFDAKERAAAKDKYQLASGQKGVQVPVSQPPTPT
Description: as §1

HIF-1 = experiment: HIF-1-dependent p2.1 luciferase reporter assay; type: cell-based, human
Description: 293 or Hep3B cells were seeded onto 24-well plates at 8×10^4 cells per well of a 24-well plate. The following day, the cells were transfected with plasmid DNAs using Fugene-6 (Roche) for 293 and Lipofectamine Plus (Invitrogen) for Hep3B cells. After 24 h, the cells were exposed to 20% or 1% O2 for 24 h. Cells were lysed, and the luciferase activities were determined by multi-well luminescence reader (PerkinElmer), using the Dual-Luciferase Reporter Assay System (Promega). For p2.1 reporter assay, cells were co-transfected with 15 ng of control reporter pSV-Renilla, 135 ng of HIF-1 reporter p2.1, and expression vector encoding HA-OS-9, HIF-1α, or empty vector. Unless indicated otherwise, 200 ng of HIF-1α, 400 ng of HA-OS-9, 1 ng of PHD2, or 1 ng of HIF-1α triple mutant P402A/P564A/N803A (HIF-1α TM) expression vector was used for co-transfection. For pGalA reporter assays, Hep3B cells were co-transfected with 12.5 ng of pSV-Renilla, reporter 200 ng of pG5ElbLuc, 100 ng of expression vector encoding the GAL4 DNA-binding domain alone or fused to HIF-1α residues 531-826 (Jiang et al. 1997) and empty vector or vector encoding HA-OS-9. For immunoblot assays, 293 cells were seeded at 3×10^6 cells per 10-cm plate. The following day, the cells were co-transfected with expression vectors using Fugene-6. After 24 h, the cells were exposed to 20% or 1% O2 with or without MG132 (10 μM) for 8 h and lysed in 200 μl of lysis buffer containing 50 mM Tris-Cl (pH 8.0), 150 mM NaCl, 5 mM EDTA, 0.1% SDS, 1% NP-40, 0.5% sodium deoxycholate, Complete protease inhibitor cocktail (Roche), sodium orthovanadate, and sodium vanadate (Sigma).

[7] = 293 cells, co-transfection of OS-9, FIG. 4B

B1: OS-9: human OS-9 protein (667-residue isoform), HA-tagged, from expression vector or in vitro-translated (protein)
chain: MAAETLLSSLLGLLLLGLLLPASLTGGVGSLNLEELSEMRYGIEILPLPVMGGQSQSSDVVIVSSKYKQRYECRLPAGAIHFQREREEETPAYQGPGIPELLSPMRDAPCLLKTKDWWTYEFCYGRHIQQYHMEDSEIKGEVLYLGYYQSAFDWDDETAKASKQHRLKRYHSQTYGNGSKCDLNGRPREAEVRFLCDEGAGISGDYIDRVDEPLSCSYVLTIRTPRLCPHPLLRPPPSAAPQAILCHPSLQPEEYMAYVQRQADSKQYGDKIIEELQDLGPQVWSETKSGVAPQKMAGASPTKDDSKDSDFWKMLNEPEDQAPGGEEVPAEEQDPSPEAADSASGAPNDFQNNVQVKVIRSPADLIRFIEELKGGTKKGKPNIGQEQPVDDAAEVPQREPEKERGDPERQREMEEEEDEDEDEDEDEDERQLLGEFEKELEGILLPSDRDRLRSEVKAGMERELENIIQETEKELDPDGLKKESERDRAMLALTSTLNKLIKRLEEKQSPELVKKHKKKRVVPKKPPPSPQPTEEDPEHRVRVRVTKLRLGGPNQDLTVLEMKRENPQLKQIEGLVKELLEREGLTAAGKIEIKIVRPWAEGTEEGARWLTDEDTRNLKEIFFNILVPGAEEAQKERQRQKELESNYRRVWGSPGGEGTGDLDEFDF
modifications: left off: small tags and cut ends
notes: human OS-9 protein (667-residue isoform), HA-tagged, from expression vector or in vitro-translated
Which “transactivation of GAL4-dependent reporter by pGalA” value [1] does the source give for B1 here?
The value was “no significant inhibitory effect”.

And the “binding of PHD2 to GST-HIF-1α (531-826)” value (PHD2 [2])?
The value was “increased binding”.

And the “interaction of HA-OS-9 and HIF-1α in living cells” value (HIF-1α [3])?
The value was “coimmunoprecipitation”.

What about the “interaction of OS-9 with PHD3” value (PHD3) of the same molecule?
The value was “interaction”.

What about the “binding of OS-9 to GST-HIF-1α” value (HIF-1α [4]; HIF-1α residues 1-329, 429-608, 531-610, and 786-826) of the same molecule?
The value was “did not bind”.

And the “binding of OS-9 to GST-HIF-1α” value (HIF-1α [4]; HIF-1α residues 531-826, 653-826, or 692-826)?
Its value is “efficiently bound”.

What about the “binding of OS-9 to GST-HIF-1α (531-826)” value (HIF-1α [5]) of the same molecule?
The value was “dose-dependent manner”.

And the “interaction of OS-9 with PHD2” value (PHD2 [6])?
Its value is “interaction”.

What about the “interaction of OS-9 with PHD1” value (PHD1) of the same molecule?
Its value is “interaction”.

And the “Induction of p2.1 reporter activity by HIF-1α” value (HIF-1; [7])?
The value was “significantly inhibited”.

What about the “reporter gene transcription mediated by HIF-1 heterodimers containing HIF-1α-TM” value (HIF-1; [7]) of the same molecule?
The value was “neither OS-9 nor PHD2 inhibited”.

What about the “Reporter gene activity induced by hypoxia and/or HIF-1α expression vector” value (HIF-1; co-transfection of OS-9 expression vector, Hep3B cells, 20% or 1% O2, FIG. 3A) of the same molecule?
Its value is “dramatically inhibited”.
